Laboratory results from paper PMC8244301.

Key:
[1] = biological target: Truncated GG-SpaB (GG-SpaB_(C-trun)) protein (residues 31-184) (Lactobacillus rhamnosus GG); experiment: BLI; settings: group
[2] = biological target: Full-length L. rhamnosus GG SpaB (GG-SpaBFL) protein (residues 33-205) (Lactobacillus rhamnosus GG); experiment: BLI; settings: group
[3] = biological target: Truncated L. rhamnosus GG SpaB (GG-SpaBC-trun) protein (residues 31-184) (Lactobacillus rhamnosus GG); experiment: BLI; GG-SpaB protein (10 uM) immobilised on aminopropylsilane (APS) biosensors; mucin Type II (~19.5-312 nM) as analyte; PBS (10 mM sodium phosphate pH 7.4, 137 mM NaCl, 2.7 mM KCl), 30 C; ~600 s association, ~900 s dissociation; 1:1 binding fit; in duplicate
[4] = biological target: Full-length L. rhamnosus GG SpaB (GG-SpaBFL) protein (residues 33-205) (Lactobacillus rhamnosus GG); experiment: as above

Kd [1] | Kd [2] | Kd [3] | koff [3] | kon [3] | Kd [4] | koff [4] | kon [4] | Substance
2.6 nM | 0.3 nM | – | – | – | – | – | – | porcine gastric mucin (Type II)
– | – | 2.55 nM | 6.86e-05 s⁻¹ | 26300 M⁻¹ s⁻¹ | 0.306 nM | 1.09e-05 s⁻¹ | 35300 M⁻¹ s⁻¹ | porcine gastric mucin (Type II) (Sigma-Aldrich)
